Substrate in data set [1]: NCCc1c[nH]c2ccc(O)cc12
Description: colorimetric assay of CoASH release, non-linear regression. The class given is biochemical, Sparus aurata. To be noted: near-saturating AcCoA; apparent Km.

Substrate in data set [2]: NCCc1c[nH]c2ccccc12
Described as above. The class given is biochemical, Sparus aurata. To be noted: near-saturating AcCoA; apparent Km.

B1: AANAT2 (Sparus aurata) (protein)
chain: MTQQVSGSPFFKPFFLKTPVSLLRQRRHTLPASEFRNLTPQDAISVFEIEREAFVSVSGECPLTLDEVLNFLGQCPELSLGWFEEGQLVAFIIGSGWGKERLSQEAMTQHVPDSPAVHIHVLSVHRHCRQQGKGSILLWRFLQYLRCIPGLRRALLICEEYLVPFYQKAGFKEKGPSAISISNMQFQEMEYTIGGQAYTRRNSGC
On to B1, for which the figures for the Km in data set [1] and in data set [2] were 2200 µM and 2000 µM, respectively.

B2: AANAT2 (Sparus aurata; I157M) (protein)
chain: MTQQVSGSPFFKPFFLKTPVSLLRQRRHTLPASEFRNLTPQDAISVFEIEREAFVSVSGECPLTLDEVLNFLGQCPELSLGWFEEGQLVAFIIGSGWGKERLSQEAMTQHVPDSPAVHIHVLSVHRHCRQQGKGSILLWRFLQYLRCIPGLRRALLMCEEYLVPFYQKAGFKEKGPSAISISNMQFQEMEYTIGGQAYTRRNSGC
Turning to B2, the Km (usually the substrate concentration at which the rate is half of its maximum) was determined as 940 µM in data set [1] and 900 µM in data set [2].

B3: AANAT2 (Sparus aurata; G73T/L69R/N70H/Q74L) (protein)
chain: MTQQVSGSPFFKPFFLKTPVSLLRQRRHTLPASEFRNLTPQDAISVFEIEREAFVSVSGECPLTLDEVRHFLTLCPELSLGWFEEGQLVAFIIGSGWGKERLSQEAMTQHVPDSPAVHIHVLSVHRHCRQQGKGSILLWRFLQYLRCIPGLRRALLICEEYLVPFYQKAGFKEKGPSAISISNMQFQEMEYTIGGQAYTRRNSGC
Consider B3, for which the Km worked out at 880 µM in data set [1] and 1200 µM in data set [2].

B4: AANAT2 (Sparus aurata; S123A) (protein)
chain: MTQQVSGSPFFKPFFLKTPVSLLRQRRHTLPASEFRNLTPQDAISVFEIEREAFVSVSGECPLTLDEVLNFLGQCPELSLGWFEEGQLVAFIIGSGWGKERLSQEAMTQHVPDSPAVHIHVLAVHRHCRQQGKGSILLWRFLQYLRCIPGLRRALLICEEYLVPFYQKAGFKEKGPSAISISNMQFQEMEYTIGGQAYTRRNSGC
For the protein B4, the Km in data set [1] and in data set [2] was 650 µM each time.

For the origin of these results see article PMC3111191, “Molecular Evolution of Multiple Arylalkylamine N-Acetyltransferase (AANAT) in Fish” (Marine Drugs, 2011).
